From publication doi:10.1101/2025.06.13.659497 come the findings set out here.

The experiment has as its target biotinylated recombinant bovine serum albumin with N-terminal Avi tag (rBSA-Bt) (Bos taurus). Briefly: SPR.

Chain of streptavidin (P22629 25-183): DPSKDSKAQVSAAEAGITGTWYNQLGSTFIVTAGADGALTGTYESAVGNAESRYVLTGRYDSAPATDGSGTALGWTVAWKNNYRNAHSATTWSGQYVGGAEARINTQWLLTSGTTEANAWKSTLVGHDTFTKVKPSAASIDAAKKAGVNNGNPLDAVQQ

For “streptavidin (from UniProt P22629 25-183) (natural protein)”, the surface density was determined as 28 ng/cm^2.
